Data reported in the RNAGym collection of RNA variant scans (doi:10.1101/gr.219683.116).

B1: mRNA-splicing (parent)
chain: AGUUGCUGCUGGGAGCUCCAGCACAGUGAAAUGGACAGAAGGGCAGAGCAA

Variants of: B1
Test: exon inclusion enrichment index; higher = more inclusion; WT1 exon 5 minigene, HEK293

| Variant | exon inclusion enrichment index |
| --- | --- |
| G5U G8U C9U G26U | 0.161 |
| C6A U7C C9A U10C G12U | 2.7 |
| G5U G8U C9U G15U | 0.107 |
| G5A C6U U7A G8U C9A G41U | 0.077 |
| G5A C6U U7A G8U C9A A40G G41U | 0.0544 |
| G5C C6U G8C C9U U10C G11U | 1 |
| G5C C6A U7C G8A U10A A25G G26U | 0.306 |
| G5A C6G U7G C9A A35C C36G | 0.00118 |
| A23U C24U | 0.078 |
| G5C C6U G8C C9U U10C G13C A14G | 1.94 |
| G5A C6U U7A G8U C9A C24A A25G | 0.0412 |
| G5A C6U U7A G8U C9A A45C G46A | 0.0341 |
| G5C C6A U7C G8A U10A G21A C22G | 0.156 |
| U3A U4C G5U G8U C9U | 0.407 |
| G5A U7C G8A U10C C19U A20G | 0.888 |
| U27A G28C | 0.192 |
| G5C C6A U7C G8A U10A U32A G33U | 0.0392 |
| G5C C6G U7C U10C C36A A37G | 2.14 |
| G5C C6G U7C U10C C36A A37U | 2.07 |
| C6A U7C C9A U10C A30C A31C | 4.36 |
| G5C C6G U7C U10C G41C G42U | 4.21 |
| G5C C6A U7C G8A U10A G13A | 0.277 |
| C6A U7C C9A U10C C44U | 1.32 |
| G5A C6U U7A G8U C9A A31U U32G | 0.0286 |

| Variant | exon inclusion enrichment index |
| --- | --- |
| C22U A23G | 1.77 |
| C6A U7C C9A U10C G13A A14U | 3.22 |
| A25C G26U | 0.368 |
| G5A C6G U7G C9A C44A A45C | 0.00399 |
| C24U | 0.0472 |
| G5A C6U U7A G8A C9G | 0.0475 |
| G5U G8U C9U G11U G12U | 0.00578 |
| C6A U7A C9A U10A C16A U17C | 0.47 |
| G5C C6U G8C C9U U10C A40U G41C | 2.71 |
| G5A C6G U7G C9G | 0.00209 |
| G5A C6G U7G C9A G12U G13C | 0.00117 |
| G5U G8U C9U C19G | 0.0649 |
| G5C C6U G8C C9U U10C A31U | 1.74 |
| G5A U7C G8A U10C A23U C24G | 2.69 |
| G5C C6G U7C U10A G11U | 3.26 |
| G5A C6G U7G C9A G38A A39U | 0.00074 |
| C6A U7C C9A U10C A45U G46A | 2.51 |
| G5U G8U C9U A39C A40C | 0.321 |
| G5U G8U C9U G26A U27A | 0.24 |
| G5C C6U G8C C9U U10C G26A | 2.49 |
| G5A C6U U7G G8C C9A | 0.407 |
| G5C C6A U7C G8A U10A C18G C19U | 0.00896 |
| G2U U3G G5A C6U U7A G8U C9A | 0.348 |
| G5A U7C G8A U10C U32C | 3.88 |

| Variant | exon inclusion enrichment index |
| --- | --- |
| A40C G41A | 0.0344 |
| U3A G5C C6A U7C G8A U10A | 0.475 |
| G5A U7C G8A U10C C16G U17G | 0.238 |
| G5C C6G U7C U10C C18G C19U | 1.44 |
| U4G G5A G8U C9U | 0.369 |
| G5U G8U C9U G12A | 0.0372 |
| U17C C18G | 0.369 |
| G5A U7C G8A U10C G42A | 3.71 |
| G5U G8U C9U A31G U32C | 0.678 |
| G5A U7C G8A G11C | 1.3 |
| G5C C6G U7C U10C G15A | 2.71 |
| C6A U7C C9A U10C G34U | 1.52 |
| G5C C6G U7C U10C G28A A29G | 2.1 |
| G5A C6U U7A G8U C9A C36G A37G | 0.00777 |
| G5C C6G U7C U10C A37G G38C | 3.22 |
| G5A C6G U7G C9A A39G A40U | 0.00199 |
| C6A U7C C9A U10G G11A | 2.06 |
| G5A U7C G8A U10C C24A A25U | 2.06 |
| G5C C6G U7C U10C G13U | 0.534 |
| G5C C6A U7C G8A U10A C24U | 0.0213 |
| C6A U7C C9A U10C A20G G21A | 3.72 |
| G46U | 0.0964 |
| C6A U7C C9A U10C C24A A25G | 2.94 |
| G5A C6U U7A G8U C9A C19U | 0.00395 |

| Variant | exon inclusion enrichment index |
| --- | --- |
| C6A U7C C9A U10C A30C | 3.29 |
| G5C C6U G8C C9U U10C C19A A20G | 0.213 |
| G5U C6A | 0.00655 |
| C6A U7C C9A U10C C24U A25C | 4.21 |
| G5A C6U U7A G8U C9A C24U A25C | 0.546 |
| G5A C6U U7A G8U C9A A39U | 0.0074 |
| G5U G8U C9U U32G G33C | 0.0926 |
| U4A C6A U7C G8A U10A | 0.0102 |
| G5A C6G G8C C9U U10C | 0.0763 |
| G5C C6G U7C U10C G28U A29G | 3.24 |
| G5U G8U C9U G43C C44A | 0.722 |
| G21A C22A | 1.17 |
| C6A U7A C9A U10A G11U G12U | 1.53 |
| G5A U7C G8A U10C U32C G33U | 1.75 |
| G5A C6G U7G C9A G38C A39C | 0.00466 |
| C24G A25G | 0.0325 |
| C6A U7C C9A U10C G11A G12C | 2.2 |
| G5U G8U C9U G42C | 0.786 |
| G5C C6A U7C C9G U10A | 1.72 |
| G5A C6A U7G C9A | 0.107 |
| C6A U7C C9A U10C G46U A47U | 3.03 |
| G5C C6A U7C G8A U10A C16U U17G | 0.0279 |
| G5C C6G U7C U10C A37U G38C | 2.27 |
| U3G U4C G5C C6A U7C G8A U10A | 0.139 |

| Variant | exon inclusion enrichment index |
| --- | --- |
| C6A U7A C9A U10A C22G A23G | 0.212 |
| C6A U7A C9A U10A C22G A23U | 0.0793 |
| G5A U7C G8A U10C C22G A23U | 0.522 |
| C6A U7A C9A U10A A29U A30C | 0.665 |
| C6A U7A C9A U10A A40U | 0.579 |
| G5C C6G U7C U10C A35G C36U | 0.0687 |
| G2U U3A G5C C6A U7C G8A U10A | 0.383 |
| G5U G8U C9U G21C C22U | 0.151 |
| C6A U7A C9A U10A C44A A45U | 1.71 |
| C6A U7A C9A U10A C44A A45C | 1.9 |
| C6A U7A C9A U10A C36A A37G | 0.204 |
| C6A U7C C9A U10C C24A | 2.94 |
| C6A U7C C9A U10C C24G | 3.61 |
| G5U G8U C9U G46C A47U | 0.15 |
| G5A C6U U7A G8U C9A A45G G46A | 0.447 |
| G5A C6U U7A G8U C9A A45G G46C | 0.131 |
| G2A U3A G5A U7C G8A U10C | 2.08 |
| G5A U7C G8A U10C G13U | 0.0615 |
| G5A C6G U7G C9A G46A A47G | 0.00174 |
| G5C C6G U7C U10C G12U G13C | 0.741 |
| G5A C6U U7A G8U C9A A30U A31G | 0.0609 |
| G5A C6U U7A G8U C9A G42C | 0.399 |
| G12C G13C | 0.309 |
| G5U G8U C9U G48U | 0.22 |

| Variant | exon inclusion enrichment index |
| --- | --- |
| G5C C6A U7C G8A U10A C16A U17C | 0.0679 |
| G5A U7C G8A U10C G43C C44G | 4.39 |
| G5C C6U G8C C9U U10C C44A A45C | 3.61 |
| G5A U7C G8A U10C A20U G21U | 1.69 |
| G5U G8U C9U C18U C19U | 0.000815 |
| G5A U7C G8A U10C G38C | 1.83 |
| G5C C6U G8C C9U U10C A47G G48C | 0.706 |
| G5A C6U U7A G8U C9A U32G G33A | 0.00894 |
| G5C C6A U7G G8U U10A | 0.00932 |
| G5A C6G U7G C9A C24A A25C | 0.0413 |
| C19A A20G | 0.356 |
| A35U C36A | 0.000875 |
| G5A C6U U7A G8U C9A C19A A20G | 0.00271 |
| G5A C6U U7A G8U C9A C19A A20U | 0.0348 |
| C44G A45C | 0.399 |
| C44G A45U | 0.0615 |
| G5A C6G U7G C9A C36U | 0.00174 |
| G28A | 0.0138 |
| G5A C6G U7G G8U C9G | 0.00173 |
| G5C C6A U7C G8A U10A A14C G15C | 0.00871 |
| G5U G8U C9U A20G | 0.322 |
| G5U G8U C9U A23C C24A | 0.231 |
| G5A U7C G8A U10C A39U | 0.113 |
| G5A C6G U7A G8C C9A | 0.0442 |

| Variant | exon inclusion enrichment index |
| --- | --- |
| G5A C6G U7G C9A G15A | 0.00165 |
| G5A C6G U7C U10C | 0.952 |
| G5A C6G U7G C9A G26C U27G | 0.0205 |
| G5C C6U G8C C9U U10C C16U | 2.36 |
| G5C C6U G8C C9U U10C G21A C22U | 0.846 |
| G5C C6G U7C U10C A39G A40G | 0.367 |
| G5C C6A U7C G8A U10A G34U A35C | 0.0109 |
| G5A C6G U7G C9A C24U A25U | 0.000784 |
| C6A U7A C9A U10A A14C G15A | 0.473 |
| A25U G26A | 0.136 |
| G5A C6U U7A G8U C9A C18U | 0.0307 |
| C6A U7C C9A U10C A30U A31C | 2.83 |
| G2A U3G G5A C6U U7A G8U C9A | 0.0498 |
| C6A U7A C9A U10A A35G C36G | 0.0241 |
| G5A C6G U7G C9A U10C G11C | 0.0142 |
| G5C C6G U7C U10C G42U | 4.02 |
| G5C C6U G8C C9U U10C G42U G43U | 2.81 |
| G5U C6A G8C C9U U10C | 0.611 |
| G5C C6U G8C C9U U10C G33U | 0.658 |
| G5U G8U C9U A45U G46C | 0.11 |
| G5C C6A U7C G8A U10A C36G A37G | 0.00352 |
| G5A U7C G8A U10C G33A | 0.235 |
| U4G C6U U7A G8U C9A | 0.0761 |
